The data set is described as follows: soluble on expression in E. coli; label from the status in PepcDB or PDB records.
Take “MLDLQGLEEIANVQMQLENIISKLNIPIIQKGVFDNEGYLKSIMRGMRDYICFKTSKKKYKTIKAQNVIIHPGSLISTDSVKYFVAGEIIETTKMYARSIGVLKKEWIDDIILNEEFKHNDISSKELEHHHHHH”: the “soluble on expression in E. coli” value is “not soluble”. In the case of “FLPTSREEMDQLGWDSCDVIIVTGDAYVDHPSFGMAIIGRLLEAQGFRVGIIAQPEWQTKDAFMTLGKPNLFFGVTAGNMDSMINRYTADKKIRHDDAYTPNNKGGMRPDRCSLVYSQRCREAYKDVPIVLGGIEASLRRVAHYDYWSDKVRRSILLDAKADILLFGNAERALVEVAHRLANGESINKMVDIRGTAVNLAQVPEHFKIIDSTRIDQPNKPFVPSNPYEVETQCATKGDEKEEAQPITIRPSRHDAKTTAVRLPSFEKLVNDRILYAHASRVLHLETNPYSGRALVQRHGDRELWVNQAPIPLTTEEMDFVFGLYYARVPHPKYGDAKIPAYDMIKTSVNIMRGCF” it was “not soluble”.

Consider “WRRLLESLQQGRRSEERNRLVVERTNQAILLLEPGAGTIIDANPATCVLLGFSRNELTGADIHALLSGPVQEVDSELERCLRETRELSLCHRDGAELVVEAMATQVPHGDDQALCLMFHDIT”, for which the “soluble on expression in E. coli” value is recorded as “not soluble”.

Consider “MDEKTKKAEEMALSLTRAVAGGDEQVAMKCAIWLAEQRVPLSVQLKPEVSPTQDIRLWVSVEDAQMHTVTIWLTVRPDMTVASLKDMVFLDYGFPPVLQQWVIGQRLARDQETLHSHGVRQNGDSAYLYLLSARNTSLNPQELQRERQLRMLEDLGFKDLTLQPRGPLEPGPPKPGVPQEPGRGQPDAVPEPPPVGWQCPGCTFINKPTRPGCEMCCRARPEAYQVPASYQPDEEERARLAGEEEALRQYQQRKQQQQEGNYLQHVQLDQRSLVLNTEPAECPVCYSVLAPGEAVVLRECLHTFCRECLQGTIRNSQEAEVSCPFIDNTYSCSGKLLEREIKALLTPEDYQRFLDLGISIAENRSAFSYHCKTPDCKGWCFFEDDVNEFTCPVCFHVNCLLCKAIHEQMNCKEYQEDLALRAQNDVAARQTTEMLKVMLQQGEAMRCPQCQIVVQKKDGCDWIRCTVCHTEICWVTKGPRWGPGGPGDTSGGCRCRVNGIPCHPSCQNCH”, for which the “soluble on expression in E. coli” value is listed as “soluble”. On to “GPGSMHAAPYEEVALSDMLLEDGKLRYPCPCGDLFELSLSEFAKGSVVAECPTCSLTVRIICNEEERHAFLLRCNALNGVRDVVIA”, for which the “soluble on expression in E. coli” value was “not soluble”. Next, “MSDDLSAFFAKKKDKKKKSAVKIEEVGQALERRAKRQEEYEQESEDVSEKRVEEEKAVNPNEESEWIEYGESQGRLDGLKIKDMGLESEQDQVNNEEPEDREVHETKTWGQVSSEKKATEEPEQAVTISDKAMAAAYKPPAMRRPGAPYRPRAAAANLDMGSDAAFPSLADASKIEKNKKEESKSPGGWVKAGSGGAWPGSSGPSSSGSSRSYPTTAGSGRDSALAALKMMSAANPAPARNEPAPAPAAAAPASSGAAKAGSYVPPHLRKNQ”: “not soluble”; “MEVFLLKLDSKNCPNKRLKTLEEVPENTAITVGNFDGVHLGHRYLIENLKKKAKSENLKTLVLTFCPHPLKVLAPQLLPCELTDINEKIEIFRELGVDYLCFIRFDKEFAKIRAREFLEKIIYEKLKCRYLLVGYDWRYGYRREGEIELAKEVGSELGFEVEEAKPFKIKGHIVSSTLIRRLLREGRVEEVREYLGHNYWVKRKVVKGDQRGSKIGFPTANLQNTENLCLKEGVYAVKVEDKYLGVANYGYRPTFGKKKRVLEVHILDFEGNLRGKRIKVEFLKFIREEKKFSSVEELIQQIKKDVEAVKGLSKLEHHHHHH”: “soluble”.

Regarding “MSLHINQLLQHANSDLPLLQANFGLERESLRINKTNHRLAQTPHPTALGSRQFHPYIQTDYSESQMELITPVAHSSKEVLRFLGAITDVAERSIDQNQYLWPLSMPPQITEDEIEIAQLEDDFEFSYRQYLDKKYGKILQSISGIHYNMELGADLMNELFELSGYQSFIDFKNDLYLKVAQNFLNYRWFLTYLYGASPLAEKGFLNEELSQTVRSIRNSHLGYVNTDDIKVPFDSLENYISSIEHYVKSGALSAEKEFYSAVRLRGSKHNRDYLTKGITYLEFRCFDLNPFNNRGITQETIDSVHLFILAMLWLDTPKKLNQALDKAQKLNDKIALSHPLEKLPKENSASLIIEAMEALIKHFKLPSYYDDLLIAIKKQVENPKLTLSGRLFEHIKHASLEHFGQKKGQDYHNYAWQNYYALKGYENMELSTQMLLFDTIQKGIHFEILDENDQFLKLWHNDHIEYVKNGNMTSKDNYVIPLAMANKVVTKKILRENGYPVPAGAEFDNKDEALRYYSQIKNKPIVVKPKTTNFGLGISIFETAASHNDYEKALDIAFIEDYSVLVEEFIPGTEYRFFILDGKCEAVLLRVAANVVGDGHSTVRQLVAQKNRDPLRGREHRSPLEIIDLGDIELLMLQQEGYTLEDILPKGKKVNLRGNSNISTGGDSIDVTETMDPSYKQLAANMATAMGAWVCGVDLIIPDTNLKASKGKPNCTCIELNFNPSMYMHTYCYQGPGQVITGKILAKLFPEISTKIEGHHHHHH”, the “soluble on expression in E. coli” value is reported as “soluble”. Next, “SARKSNLPVLLVPFLLCQALVRCSSPLPLVVNTWPFKNATEAAWRALASGGSALDAVESGCAMCEREQCDGSVGFGGSPDELGETTLDAMIMDGTTMDVGAVGDLRRIKNAIGVARKVLEHTTHTLLVGESATTFAQSMGFINEDLSTSASQALHSDWLARNCQPNYWRNVIPDPSKYCGPYKPPGILKQDIPIHKETEDDRGHDTIGMVVIHKTGHIAAGTSTNGIKFKIHGRVGDSPIPGAGAYADDTAGAAAATGNGDILMRFLPSYQAVEYMRRGEDPTIACQKVISRIQKHFPEFFGAVICANVTGSYGAACNKLSTFTQFSFMVYNSEKNQPTEEKVDCI”: “soluble”; “MKIIARNKKALFDYSIIERFEAGIVLKGSEVVALRAGRANLKDSFVRIIKNEIFLLNSHISLLHTTHSFYKHEERGARKLLMHRKQIDKLLGKVSIEGYTIVALDLYFNTKNKVKATLALAKGKNLHDKRETLKKKQADLEARAAMKNYK”: “not soluble”; “MKKESQVIFDKNVIEFVTVAAEFCAFLERAESMKRSTFVDTTLKILPLLYLKASMLPKCEMIGDESPETYVTEEIYEVLRINLASILAEKDDYLEVFLPDMAYSDEPIKKNISEDLADIYQDIKDFIFVFQLGLNETMNDSLAICQENFGLLWGQKLVNTMRALHDVKYSPKARLEHHHHHH”: “soluble”. Next, “MQPLKRIRHPSGSEILFDAKWHQYKLGGTALRSVSKLLDRFFPFDEKRVLELVSKKTGQPVDKIKQGWSRQALLGKNVHEFIECKLLKKPPPTFTLLMKRKQAREAARPADATGPAAITTTPLEDEVLHGEEALYLPVAEMAVEKVLSTYDVLGAEQVIAAPGWGIAGTIDFMGRNRRTNRVLIGDWKTTGSVTSNFRFGSFETACPGALRHLPNSKMYRYAMQVTIYGEILAREQYFEKQFFDAQLRASLTASLAVPSTDVTPPAPPAKTRGRPSSRAAAPAKSDIGSDVESLLKTFYRNNTEQRFEYGIVQLAKGEDGGVVAEFKEVTPETVMPPDCPEMTFDSLLQRVMEGVGV”: “soluble”.

“MGSDKIHHHHHHGILKERKLAKKRDEVQRYVLMAADVNLGQGNEFREIFAKSVKPLLINLDTGKVDSDANVLDFDERMAAINPETSSTPKKDIAKIKTRANDARVFKVFDDSGKLSSVVVPFYGKGLWSMIYGYVAVEPDFNTIKGLVVYEHGETPGIGDFVTDPAWLNQWKNKQLFDEKGKFAIRLVKGGVKEGDVHGVDAVSGATMTGRGVQRAMEFWFGVEGFQTFFNQLKTSAVQGEFGGEK”: the “soluble on expression in E. coli” value is “not soluble”. Next, “MGSDKIHHHHHHMHNEIVTGNVLPFNIFEKADSKLLAWIRDVSVVREITTSCRLIEEGSTPDGLFVVESGAITVCTKQADGGSLSLASLKVGNLVGEMSWLEERPAVASIDAGPGSRLLQIPREALESINQSEAFICHLLYRLIAEKLALQVQGQNIWVHRIAGTDQEPLRKVLVLFAELEEKDVAWIARSGKFKRLVAGDVLLQEGDNVPGLYLLLAGEARISITENGSWQSVGSSRRGELLGELTMLNPQAAGATANVDTVTGLELLVLDKEELSMTLNADPRLAKRFYKGIARMLSQRSRDQLLSRGFAEASRIAEELIDNEQLGLDQLSAISSAGLRFDWLCRQFQDKEG”: “not soluble”; “MGSDKIHHHHHHMSLKEEQVSIKQDPEQEERQHDQFNDVQIKQESQDHDGVDSQYTNGTQNDDSERFEAAESDVKVEPGLGMGITSSQSEKGQVLPDQPEIKFIRRQINGYVGFANLPKQWHRRSIKNGFSFNLLCVGPDGIGKTTLMKTLFNNDDIEANLVKDYEEELANDQEEEEGQGEGHENQSQEQRHKVKIKSYESVIEENGVKLNLNVIDTEGFGDFLNNDQKSWDPIIKEIDSRFDQYLDAENKINRHSINDKRIHACLYFIEPTGHYLKPLDLKFMQSVYEKCNLIPVIAKSDILTDEEILSFKKTIMNQLIQSNIELFKPPIYSNDDAENSHLSERLFSSLPYAVIGSNDIVENYSGNQVRGRSYPWGVIEVDNDNHSDFNLLKNLLIKQFMEELKERTSKILYENYRSSKLAKLGIKQDNSVFKEFDPISKQLEEKTLHEAKLAKLEIEMKTVFQQKVSEKEKKLQKSETELFARHKEMKEKLTKQLKALEDKKKQLELSINSASPNVNHSPVPTKKKGFLR”: “not soluble”. Next, “MKKLYIITGPAGVGKSTTCKRLAAQLDNSAYIEGDIINHMVVGGYRPPWESDELLALTWKNITDLTVNFLLAQNDVVLDYIAFPDEAEALAQTVQAKVDDVEIRFIILWTNREELLRRDALRKKDEQMGERCLELVEEFESKGIDERYFYNTSHLQPTNLNDIVKNLKTNPRFIFCMAGDPLEHHHHHH”: “soluble”. In the case of “FVAHSSGQEVKLDKAPIDRADKESLQRGAKGFVEYCLTCHGANFMRFNRHHDIGMSEDDIRADLIHTGQKTGDLMEAAMRKKEAEGWFGVVPPDLSVIARARGADWLYTYLRTFYQDTSTYSGWNNLIFDKVAMPHVLHHLQGWQVLEPGTGNLVQTKPGTMTKEEYDRFVADLVNYMVYLGEP” it was “not soluble”. On to “MAHHHHHHMLRLLPLRLASKVTAGNAKNQAGHPRRKAKLFHVIPGTPVTPMEKLKEQRRRYGQDRHSRLPEYRPGKNVRLDPNTFTLYATTKGVMTIRESRINPKYKWLEVEPDIQKVYRSSQMRRALAARGMTSQMVEKNEHYRSEMDLLLEPHWRQRVMRVPKATERFKDPNLFVRGVITELTPMDRYCYE”, for which the “soluble on expression in E. coli” value is “not soluble”. In the case of “MIEIKVPELAESITEGTISQWLLNVGDKVEKGGSVVELETDKVNVEIIAEDSGIVSKLLGEPGDTVEVGATIAILDANGAPVAVSTPAPAEQSKQETAEAPKAAAPSAEQTATLQGLPNTNRPIASPAARKMARELGIDLNDVRSTDPLGRVRPHDVQAHAAAPKEAPAAPKSPAPAPVAKTEFEKPVERVKMSRRRQTIAKRLVEVQQTSAMLTTFNEVDMTAIMELRKERKDAFEKKHDVRLGFMSFFTKAVVAALKQFPLLNAEIQGDELIIKKFYDIGIAVAAPDGLVVPVVRDANQLNFAEIESEIRELGKKARDNKLSLKELQGGTFTITNGGVFGSLMSTPILNSPQVGILGMHKIQVRPVAIDNERMENRPMMYIALSYDHRIVDGKEAVSFLVAVKDMLEDPKSLLLEG” it was “not soluble”; in that of “MGSDKIHHHHHHMKYISPGDWFSLEYPMGWHEFEDTEESFLFYNPDRWTGNFRISAYKDEAADYGPQCIAYELKENTSSALVKVGKWDCAYSAETFQEEGAWYTTHIWVTGEGDLSFECSFTVSKGGDKHPAEEIIRSLQVRKEGVSHPREIIPIRVLEIGEVNTAFEWASTTIKKQLTKDFTASESDIDSIQQVMDSGRFQTQQRMAWENFGIAFGAILVNEMEGMEWVTVIEGQKEYPALQFMCSDMVLDPAALVWGKAKKGLPCDLKSEFRKIKREAEAVLDDLNK”, “not soluble”.

(Values after the DeepSol protein solubility set.)
